Measured values published in article PMC9718833.

Tests used:
[1] = target: Gs protein (human (endogenous in HEK293T)) (UniProt P63092)
[2] = target: Gi3 heterotrimer of the BRET-based Gi-activation sensor (Gai3-RlucII / GFP10Gγ2 / Gβ1) (UniProt P08754)
Sequence of UniProt P08754 (P08754 whole entry, chain 1 of 3): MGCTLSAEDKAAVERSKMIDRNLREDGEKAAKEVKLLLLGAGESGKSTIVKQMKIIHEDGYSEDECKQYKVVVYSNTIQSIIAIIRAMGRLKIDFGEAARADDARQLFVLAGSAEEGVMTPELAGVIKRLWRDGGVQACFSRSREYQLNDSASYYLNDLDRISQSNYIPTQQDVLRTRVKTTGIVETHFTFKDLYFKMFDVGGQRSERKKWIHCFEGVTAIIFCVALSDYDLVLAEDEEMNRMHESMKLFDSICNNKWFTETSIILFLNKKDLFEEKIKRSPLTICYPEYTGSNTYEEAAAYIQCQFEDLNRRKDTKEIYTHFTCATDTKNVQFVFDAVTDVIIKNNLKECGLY
Sequence of UniProt P08754 (P62873 whole entry, chain 2 of 3, further chain): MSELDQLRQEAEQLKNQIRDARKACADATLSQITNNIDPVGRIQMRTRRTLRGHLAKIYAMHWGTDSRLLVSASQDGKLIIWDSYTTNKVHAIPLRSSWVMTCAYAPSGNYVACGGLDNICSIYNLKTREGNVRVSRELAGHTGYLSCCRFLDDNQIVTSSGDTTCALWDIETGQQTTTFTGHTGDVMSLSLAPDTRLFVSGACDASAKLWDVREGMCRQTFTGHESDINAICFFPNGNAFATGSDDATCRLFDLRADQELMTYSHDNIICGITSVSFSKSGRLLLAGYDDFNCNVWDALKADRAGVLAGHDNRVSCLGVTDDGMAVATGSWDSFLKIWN
Sequence of UniProt P08754 (P59768 whole entry, chain 3 of 3, further chain): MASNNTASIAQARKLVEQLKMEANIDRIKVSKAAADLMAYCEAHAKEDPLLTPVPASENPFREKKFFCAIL

Sequence of UniProt P63092 (P63092 whole entry, looked up): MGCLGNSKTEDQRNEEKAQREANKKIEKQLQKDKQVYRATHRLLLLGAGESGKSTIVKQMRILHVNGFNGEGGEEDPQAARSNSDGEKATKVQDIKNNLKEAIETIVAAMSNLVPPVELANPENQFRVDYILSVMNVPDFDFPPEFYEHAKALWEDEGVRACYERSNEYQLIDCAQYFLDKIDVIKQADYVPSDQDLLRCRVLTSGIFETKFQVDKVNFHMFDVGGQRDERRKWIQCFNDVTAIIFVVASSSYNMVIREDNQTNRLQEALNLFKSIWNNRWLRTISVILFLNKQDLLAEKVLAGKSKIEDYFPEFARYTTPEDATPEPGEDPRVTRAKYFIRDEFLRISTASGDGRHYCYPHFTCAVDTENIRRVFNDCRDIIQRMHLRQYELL

HA-tagged human M1 muscarinic acetylcholine receptor (CHRM1) R218Q (from UniProt P11229 1-460)
increase of the Emax of Gs-dependent cAMP production following carbachol, EPAC-BRET sensor in HEK293T with 500 nM of the Gq inhibitor YM-254890, against WT CHRM1 (% increase of Emax) [1]: 17

HA-tagged human M1 muscarinic acetylcholine receptor (CHRM1) E221K (from UniProt P11229 1-460)
increase of the Emax of CHRM1 activation of Gi compared to WT CHRM1, BRET-based Gi-activation (Gi3) sensor in HEK293T, carbachol (% increase of Emax against WT) [2]: 30

HA-tagged human M1 muscarinic acetylcholine receptor (CHRM1) A424K (from UniProt P11229 1-460)
increase of the Emax of CHRM1 activation of Gi compared to WT CHRM1, BRET-based Gi-activation (Gi3) sensor in HEK293T, carbachol (% increase of Emax against WT) [2]: 31

HA-tagged human M1 muscarinic acetylcholine receptor (CHRM1) L131F (from UniProt P11229 1-460)
increase of the Emax of Gs-dependent cAMP production following carbachol, EPAC-BRET sensor in HEK293T with 500 nM of the Gq inhibitor YM-254890, against WT CHRM1 (% increase of Emax) [1]: 51
